We go through four molecules from patent publication US20090291504A1.

In series [1] the test system is Cre fragment β1 (reported in Casanova et al., 2003).
The target in series [2] is nlcCre (cCre with an extra SV40 large T antigen NLS) (Simian Virus 40; bacteriophage P1) (UniProt P06956). The series can be described thus: cell-based or functional assay.
The target in series [3] is cCre (C-terminal half of Cre fused at its N-terminus to the C-peptide leucine zipper) (bacteriophage P1) (UniProt P06956). The series can be described thus: cell-based or functional assay.
Series [4] has as its target Cre fragments alpha5 + beta1 (Casanova et al. 2003) (bacteriophage P1?) (UniProt P06956+P06956). The series can be described thus: cell_activity. The settings on record: HEK293 GFP reporter.
Series [5] concerns the target T1, C-terminal Cre fragment identical to that in cCre, without leucine zipper peptide, P06956.
T1 chain: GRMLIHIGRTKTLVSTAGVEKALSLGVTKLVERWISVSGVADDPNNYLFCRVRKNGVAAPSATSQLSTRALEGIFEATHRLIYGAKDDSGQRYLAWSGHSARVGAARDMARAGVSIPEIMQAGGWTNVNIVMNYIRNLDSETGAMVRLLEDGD

On to “Cre fragment α5 (reported in Casanova et al., 2003)”, for which, in series [1], the “Cre activity recovered from fragments lacking protein interaction motifs (tissue culture)” value was “less than 2% Cre activity was recovered”.

Molecule “nCre (N-terminal half of Cre with an N-terminal SV40 large T antigen NLS, fused at its C-terminus to the N-peptide leucine zipper) (from UniProt P06956 1-190) (enzyme)” registered a Cre activity recovered (GFP/mCherry reporter, flow cytometry, co-transfected HEK293 cells) in series [2] of 27.2%. Also, the recombinase activity of intact Cre molecule reconstituted (GFP/mCherry reporter, flow cytometry, co-transfected HEK293 cells) in series [3] is 12.1%.

As for “ATAACTTCGTATAATGTATGCTATACGAAGTTAT (double strand) [loxP]”, in series [4], the Cre recombinase activity relative to intact Cre was below 2%.

B1: N-terminal Cre fragment identical to that in nCre, without leucine zipper peptide (protein)
chain: MSNLLTVHQNLPALPVDATSDEVRKNLMDMFRDRQAFSEHTWKMLLSVCRSWAAWCKLNNRKWFPAEPEDVRDYLLYLQARGLAVKTIQQHLGQLNMLHRRSGLPRPSDSNAVSLVMRRIRKENVDAGERAKQALAFERTDFDQVRSLMENSDRCQDIRNLAFLGIAYNTLLRIAEIARIRVKDISRTDG
In the case of B1, the “Cre activity generated by co-expression of fragments without interaction motifs (tissue culture)” value in series [5] is “less than 0.5% of Cre activity”.
